This data set concerns the molecule itself. Description: SEC.

This is an account of results in article PMC2957832 (Biochemical and biophysical research communications, 2010).

B1: Purβ core tryptic fragment (residues 29–305) (domain or fragment, mouse, UniProt O35295 29-305, looked up)
chain: GGGGGGGGPGGEQETQELASKRLDIQNKRFYLDVKQNAKGRFLKIAEVGAGGSKSRLTLSMAVAAEFRDSLGDFIEHYAQLGPSSPEQLAAGAEEGGGPRRALKSEFLVRENRKYYLDLKENQRGRFLRIRQTVNRGGGGFGGGPGPGGLQSGQTIALPAQGLIEFRDALAKLIDDYGGDEDELAGGPGGGAGGPGGGLYGELPEGTSITVDSKRFFFDVGCNKYGVFLRVSEVKPSYRNAITVPFKAWGKFGGAFCRYADEMKEIQERQRDKLYER
As for B1, the “stoichiometry N” value turned out to be 2.
